Consider two molecules from PMC4357719, “Roles of Rad51 paralogs for promoting homologous recombination in Leishmania infantum”.

Data set [1] has as its target T1, LiRad51-3 (in 3-4-6 complex);LiRad51-4 (in 3-4-6 complex);LiRad51-6 (in 3-4-6 complex) (Leishmania infantum;Leishmania …, UniProt E9AHR7;A4HUT5;A4I499 1-687;1-518;1-649, ||). The experiment in a line: competition EMSA; 0-40 nM complex; mixture; 25 mM MOPS pH 7.0, 0.2% Tween-20, 1 mM CaCl2, 2 mM DTT; 25 nM 32P-DNA; 37 C 10 min, then 0.2% glutaraldehyde 15 min; 8% TBE acrylamide gel. As to conditions: protein: recombinant;recombinant;recombinant; copies: 1;1;1; label: 32P on strand 1; fork 1:2. A general note: A gel shift assay detects complexes by their altered migration in electrophoresis.

The target in data set [2] is T1, LiRad51-3 (in 3-4-6 complex);LiRad51-4 …. The experiment in a line: competition EMSA; 0-40 nM complex; preferred substrate in mixture; 25 mM MOPS pH 7.0, 0.2% Tween-20, 1 mM CaCl2, 2 mM DTT; 25 nM 32P-DNA; 37 C 10 min, then 0.2% glutaraldehyde 15 min; 8% TBE acrylamide gel. The note with it: protein: recombinant;recombinant;recombinant; copies: 1;1;1; label: 32P on strand 3 (JYM1745); D-loop: 1:2 with unpaired bubble, 3 paired to 2 in the bubble.

B1: splayed arm (JYM925/JYM926) (structured_DNA)
DNA 1: GGGTGAACCTGCAGGTGGGCAAAGATGTCCTAGCAATGTAATCGTCAAGCTTTATGCCGT
DNA 2: ACGCTGCCGAATTCTACCAGTGCCAGCGACGGACATCTTTGCCCACCTGCAGGTTCACCC
B1: the binding result in data set [1] is “binds”.

B2: D-loop (JYM1395/JYM1396/JYM1745) (structured_DNA)
DNA 1: GCCAGGGACGGGGTGAACCTGCAGGTGGGCGGCTGCTCATCGTAGGTTAGTATCGACCTATTGGTAGAATTCGGCAGCGTCATGCGACGGC
DNA 2: GCCGTCGCATGACGCTGCCGAATTCTACCACGCTACTAGGGTGCCTTGCTAGGACATCTTTGCCCACCTGCAGGTTCACCCCGTCCCTGGC
DNA 3: AAGATGTCCTAGCAAGGCACCCTAGTAGC
Turning to B2, the binding result in data set [2] is on record as “binds”.
